In the supplement of paper PMC10567573:

B1: TSN (parent)
chain: AFVVYLETETLVTREAVTEILGIE

Variants of: B1
Assay: protein stability index of a GFP-peptide fusion (GPS, HEK-293T) (PSI 1-6); higher = more stable
Conditions: c terminus: a fixed tail appended
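Note: lentivirally expressed fusions sorted by FACS into six bins by GFP to DsRed ratio, PSI derived from sequencing read proportions per bin multiplied by bin number.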

| Variant | protein stability index |
| --- | --- |
| AFVVYLEDETLVTREAVTEILGIE | 1.94 |
| AFVVYLEKETLVTREAVTEILGIE | 2.53 |
| AFVVYLESETLVTREAVTEILGIE | 2.93 |
| AFVVYLENETLVTREAVTEILGIE | 3.62 |
| AFVVYLEEETLVTREAVTEILGIE | 1.4 |
| AFVVYLEQETLVTREAVTEILGIE | 2.06 |
| AFVVYLEAETLVTREAVTEILGIE | 2.27 |
| AFVVYLECETLVTREAVTEILGIE | 2.57 |
| AFVVYLEVETLVTREAVTEILGIE | 2.41 |
| AFVVYLERETLVTREAVTEILGIE | 4.36 |
| AFVVYLEHETLVTREAVTEILGIE | 3.17 |
| AFVVYLEYETLVTREAVTEILGIE | 1.7 |
| AFVVYLEIETLVTREAVTEILGIE | 2.34 |
| AFVVYLEGETLVTREAVTEILGIE | 2.1 |
| AFVVYLETETLVYREAVTEILGIE | 3.33 |
| AFVVYLETETLVMREAVTEILGIE | 3.48 |
| AFVVYLETETLVGREAVTEILGIE | 2.1 |
| AFVVYLETETLVDREAVTEILGIE | 1.81 |
| AFVVYLETETLVIREAVTEILGIE | 1.31 |
| AFVVYLETETLVAREAVTEILGIE | 2.44 |
| AFVVYLETETLVNREAVTEILGIE | 1.72 |
| AFVVYLETETLVFREAVTEILGIE | 3.68 |
| AFVVYLETETLVEREAVTEILGIE | 1.06 |
| AFVVYLETETLVWREAVTEILGIE | 1.62 |

| Variant | protein stability index |
| --- | --- |
| AFVVYLETETLVHREAVTEILGIE | 2.05 |
| AFVVYLETETLVRREAVTEILGIE | 3.01 |
| AFVVYLETETLVKREAVTEILGIE | 1.63 |
| AFVVYLETETLVCREAVTEILGIE | 2.48 |
| AFVVYLETETLVVREAVTEILGIE | 2.31 |
| AFVVYLETETEVTREAVTEILGIE | 1.73 |
| AFVVYLETETDVTREAVTEILGIE | 2.34 |
| AFVVYLETETPVTREAVTEILGIE | 1.97 |
| AFVVYLETETMVTREAVTEILGIE | 3.03 |
| AFVVYLETETAVTREAVTEILGIE | 2.69 |
| AFVVYLETETNVTREAVTEILGIE | 2.14 |
| AFVVYLETETRVTREAVTEILGIE | 2.65 |
| AFVVYLETETWVTREAVTEILGIE | 2.15 |
| AFVVYLETETGVTREAVTEILGIE | 2.58 |
| AFVVYLETETVVTREAVTEILGIE | 2.74 |
| AFVVYLETETSVTREAVTEILGIE | 2.48 |
| AFVVYLETETTVTREAVTEILGIE | 1.64 |
| AFVVYLETETHVTREAVTEILGIE | 3.08 |
| AFVVYLETETQVTREAVTEILGIE | 3.4 |
| AFVVYLLTETLVTREAVTEILGIE | 2.42 |
| AFVVYLYTETLVTREAVTEILGIE | 2.77 |
| AFVVYLCTETLVTREAVTEILGIE | 1.79 |
| AFVVYLGTETLVTREAVTEILGIE | 2.77 |
| AFVVYLKTETLVTREAVTEILGIE | 2.63 |

| Variant | protein stability index |
| --- | --- |
| AFVVYLQTETLVTREAVTEILGIE | 3.51 |
| AFVVYLDTETLVTREAVTEILGIE | 3.68 |
| AFVVYLPTETLVTREAVTEILGIE | 2.19 |
| AFVVYLNTETLVTREAVTEILGIE | 3.66 |
| AFVVYLSTETLVTREAVTEILGIE | 1.76 |
| AFVVYLHTETLVTREAVTEILGIE | 3.41 |
| AFVVYLTTETLVTREAVTEILGIE | 2.4 |
| AFVVYLITETLVTREAVTEILGIE | 3.57 |
| AFVVYLWTETLVTREAVTEILGIE | 3.69 |
| AFVVYLETETLVTREAVHEILGIE | 4.07 |
| AFVVYLETETLVTREAVAEILGIE | 2.74 |
| AFVVYLETETLVTREAVPEILGIE | 2.79 |
| AFVVYLETETLVTREAVNEILGIE | 4.21 |
| AFVVYLETETLVTREAVEEILGIE | 3.46 |
| AFVVYLETETLVTREAVQEILGIE | 3.84 |
| AFVVYLETETLVTREAVGEILGIE | 1.49 |
| AFVVYLETETLVTREAVLEILGIE | 2.24 |
| AFVVYLETETLVTREAVFEILGIE | 2.48 |
| AFVVYLETETLVTRCAVTEILGIE | 1.97 |
| AFVVYLETETLVTRIAVTEILGIE | 3.25 |
| AFVVYLETETLVTRDAVTEILGIE | 3.69 |
| AFVVYLETETLVTRSAVTEILGIE | 2.65 |
| AFVVYLETETLVTRLAVTEILGIE | 2.17 |
| AFVVYLETETLVTRHAVTEILGIE | 1.85 |

| Variant | protein stability index |
| --- | --- |
| AFVVYLETETLVTRFAVTEILGIE | 3.13 |
| AFVVYLETETLVTRMAVTEILGIE | 3.51 |
| AFVVYLETETLVTRYAVTEILGIE | 2.25 |
| AFVVYLETETLVTRVAVTEILGIE | 3.11 |
| AFVVYLETETLVTREAVTRILGIE | 3.43 |
| AFVVYLETETLVTREAVTKILGIE | 3.64 |
| AFVVYLETETLVTREAVTIILGIE | 2.11 |
| AFVVYLETETLVTREAVTHILGIE | 2.31 |
| AFVVYLETETLVTREAVTNILGIE | 3.7 |
| AFVVYLETETLVTREAVTPILGIE | 2.44 |
| AFVVYLETETLVTREAVTVILGIE | 3.19 |
| AFVVYLETETLVTREAVTWILGIE | 2.4 |
| AFVVYLETETLVTREAVTFILGIE | 2.17 |
| AFVVYLETETLVTREAVTLILGIE | 3.65 |
| AFVVYLETETLVTREAVTCILGIE | 3.83 |
| AFVVYLETETLVTREAVTSILGIE | 1.96 |
| AFVVYLETETLVTREAVTQILGIE | 3.48 |
| AFVVYLETETLVTREATTEILGIE | 3.01 |
| AFVVYLETETLVTREAYTEILGIE | 3.6 |
| AFVVYLETETLVTREAETEILGIE | 1.4 |
| AFVVYLETETLVTREAHTEILGIE | 2.62 |
| AFVVYLETETLVTREAMTEILGIE | 4.75 |
| AFVVYLETETLVTREAGTEILGIE | 2.21 |
| AFVVYLETETLVTREADTEILGIE | 2.61 |

| Variant | protein stability index |
| --- | --- |
| AFVVYLETETLVTREAATEILGIE | 2.01 |
| AFVVYLETETLVTREAPTEILGIE | 3.55 |
| AFVVYLETETLVTREAQTEILGIE | 3.14 |
| AFVVYLETETLVTRENVTEILGIE | 1.96 |
| AFVVYLETETLVTREVVTEILGIE | 3.75 |
| AFVVYLETETLVTREYVTEILGIE | 2.47 |
| AFVVYLETETLVTREFVTEILGIE | 3.01 |
| AFVVYLETETLVTREDVTEILGIE | 1.97 |
| AFVVYLETETLVTREEVTEILGIE | 2.77 |
| AFVVYLETETLVTREMVTEILGIE | 2.01 |
| AFVVYLETETLVTRETVTEILGIE | 2.66 |
| AFVVYLETETLVTREWVTEILGIE | 3.37 |
| AFVVYLETETLVTREPVTEILGIE | 3.89 |
| AFVVYLETETLVTRECVTEILGIE | 3.53 |
| AFVVYLETETLVTREQVTEILGIE | 2.67 |
| AFVVYLETETLVTRESVTEILGIE | 3.05 |
| AFVVYLETETLVTREAVTEIIGIE | 2.57 |
| AFVVYLETETLVTREAVTEIPGIE | 2.34 |
| AFVVYLETETLVTREAVTEIAGIE | 3.48 |
| AFVVYLETETLVTREAVTEIVGIE | 3.75 |
| AFVVYLETETLVTREAVTEINGIE | 2.64 |
| AFVVYLETETLVTREAVTEISGIE | 2.04 |
| AFVVYLETETLVTREAVTEICGIE | 2.36 |
| AFVVYLETETLVTREAVTEIGGIE | 2.44 |

| Variant | protein stability index |
| --- | --- |
| AFVVYLETETLVTREAVTEIEGIE | 1.97 |
| AFVVYLETCTLVTREAVTEILGIE | 2.38 |
| AFVVYLETSTLVTREAVTEILGIE | 2.9 |
| AFVVYLETWTLVTREAVTEILGIE | 3.68 |
| AFVVYLETITLVTREAVTEILGIE | 2.44 |
| AFVVYLETLTLVTREAVTEILGIE | 1.46 |
| AFVVYLETMTLVTREAVTEILGIE | 2.42 |
| AFVVYLETATLVTREAVTEILGIE | 2.65 |
| AFVVYLETRTLVTREAVTEILGIE | 1.65 |
| AFVVYLETGTLVTREAVTEILGIE | 3.65 |
| AFVVYLETNTLVTREAVTEILGIE | 3.46 |
| AFVVYLETDTLVTREAVTEILGIE | 3.4 |
| AFVVYLETERLVTREAVTEILGIE | 2.22 |
| AFVVYLETEELVTREAVTEILGIE | 1.39 |
| AFVVYLETEKLVTREAVTEILGIE | 3.37 |
| AFVVYLETEFLVTREAVTEILGIE | 3.32 |
| AFVVYLETEQLVTREAVTEILGIE | 1.68 |
| AFVVYLETESLVTREAVTEILGIE | 2.76 |
| AFVVYLETEDLVTREAVTEILGIE | 2.79 |
| AFVVYLETECLVTREAVTEILGIE | 2.82 |
| AFVVYLETEYLVTREAVTEILGIE | 2.36 |
| AFVVYLETEVLVTREAVTEILGIE | 2.5 |
| AFVVYLETEALVTREAVTEILGIE | 1.65 |
| AFVVYLETEMLVTREAVTEILGIE | 1.36 |

| Variant | protein stability index |
| --- | --- |
| AFVVYLETEHLVTREAVTEILGIE | 2.83 |
| AFVVYLETEPLVTREAVTEILGIE | 2.45 |
| AFVVYLETELLVTREAVTEILGIE | 2.29 |
| AFVVYLETETLVTDEAVTEILGIE | 2.33 |
| AFVVYLETETLVTMEAVTEILGIE | 4.2 |
| AFVVYLETETLVTTEAVTEILGIE | 2.48 |
| AFVVYLETETLVTHEAVTEILGIE | 3.6 |
| AFVVYLETETLVTYEAVTEILGIE | 2.01 |
| AFVVYLETETLVTEEAVTEILGIE | 1.43 |
| AFVVYLETETLVTNEAVTEILGIE | 4.51 |
| AFVVYLETETLVTKEAVTEILGIE | 4.19 |
| AFVVYLETETLVTSEAVTEILGIE | 1.54 |
| AFVVYLETETLVTPEAVTEILGIE | 2.84 |
| AFVVYLETETLVTCEAVTEILGIE | 3.25 |
| AFVVYLETETLVTFEAVTEILGIE | 2.36 |
| AFVVYLETETLVTAEAVTEILGIE | 3.41 |
| AFVVYLETETLVTREAVTEALGIE | 2.66 |
| AFVVYLETETLVTREAVTEMLGIE | 3.81 |
| AFVVYLETETLVTREAVTEHLGIE | 2.68 |
| AFVVYLETETLVTREAVTELLGIE | 4.11 |
| AFVVYLETETLVTREAVTENLGIE | 1.98 |
| AFVVYLETETLVTREAVTEDLGIE | 1.6 |
| AFVVYLETETLVTREAVTEPLGIE | 1.67 |
| AFVVYLETETLVTREAVTEWLGIE | 2.75 |

| Variant | protein stability index |
| --- | --- |
| AFVVYLETETLVTREAVTEQLGIE | 5.44 |
| AFVVYLETETLVTREAVTEKLGIE | 2.91 |
| AFVVYLETETLVTREAVTEELGIE | 1.28 |
| AFVVYLETETLVTREAVTEYLGIE | 1.56 |
| AFVVYLETETLVTREAVTERLGIE | 3.48 |
| AFVVYLETETLVTREAVTEFLGIE | 3.74 |
| AFVVYLETETLQTREAVTEILGIE | 1.94 |
| AFVVYLETETLDTREAVTEILGIE | 4.41 |
| AFVVYLETETLATREAVTEILGIE | 3.16 |
| AFVVYLETETLPTREAVTEILGIE | 1.74 |
| AFVVYLETETLLTREAVTEILGIE | 2.56 |
| AFVVYLETETLMTREAVTEILGIE | 3.5 |
| AFVVYLETETLYTREAVTEILGIE | 2.53 |
| AFVVYLETETLETREAVTEILGIE | 2.35 |
| AFVVYLETETLGTREAVTEILGIE | 2.73 |
| AFVVYLETETLRTREAVTEILGIE | 2.51 |
| AFVVYLETETLTTREAVTEILGIE | 4.69 |
| AFVVYLETETLHTREAVTEILGIE | 2.21 |
| AFVVYLETETLITREAVTEILGIE | 3.19 |
| AFVVYLETETLNTREAVTEILGIE | 2.9 |
